Data on three molecules can be found in US20230103563A1 (Sanofi, published 2023).

In test [1] the target is T1, human IL4 (IL004, Millipore) (human, UniProt P05112 25-153).
T1 construct: Bought protein, used as analyte in SPR; also called interleukin IL4
T1 sequence (looked up): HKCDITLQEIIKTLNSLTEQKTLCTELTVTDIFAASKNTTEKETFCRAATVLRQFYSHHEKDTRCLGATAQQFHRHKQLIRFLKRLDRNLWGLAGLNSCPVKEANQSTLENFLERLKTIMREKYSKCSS
The test is described as follows: SPR (Biacore 3000), construct captured, IL4 as analyte; summary table. As for the experimental part:
(§1) Binding of antigens to the antibody constructs was measured using surface plasmon resonance (SPR) on a BIAcore 3000 instrument (GE Healthcare) with HBS-EP buffer (GE Healthcare). As antigens human IL4 (IL004, Millipore) and human IL13 (IL012, Millipore) were used. The capture antibody (human antibody capture kit, His capture kit, Fab capture kit, GE Life Sciences) was immobilized via primary amine groups (11000 RU) on a research grade CMS chip (GE Life Sciences) using standard procedures. […] The antigens human IL4 and human IL13 were used as analytes and injected for 240 sec with a dissociation time of 300 sec at a flow rate of 30 μL/min. IL4 and IL13 were used in a dilution series of 0.1 nM to 3 nM and 0.8 nM to 25 nM, respectively. Chip surfaces were regenerated with 2 min injects of the regeneration buffer provided with the capture kit. Sensorgrams were double referenced with a blank chip surface and HBS-EP buffer blanks. Recombinant human neonatal Fc-receptor (FcRn) protein was immobilized via primary amine groups (200 RU) in the sample flow cell compartment of a research grade CMS chip (GE Life Sciences) using standard procedures. The reference flow cell compartment was activated and deactivated without FcRn immobilization to generate a blank chip surface. For the analysis an assay buffer with pH 6.0 was used (150 mM NaCl, 20 mM Na-phosphate, 0.05% surfactant P20, pH6.0). The antibody was used as analyte at 800 nM dilution in assay buffer and injected over reference and sample flow cells for 240 sec with a dissociation time of 300 sec at a flow rate of 30 μL/min. Chip surfaces were regenerated with 2 min injects of HBS-EP buffer at 30 μl/min. Sensorgrams were double referenced with a the blank chip surface and HBS-EP buffer blanks. All data analysis was done using the BIAevaluation software v4.1.

The target of test [2] is T1, human IL4 (IL004, Millipore). The test can be described thus: SPR (Biacore), variant captured with His-capture kit, IL4 as analyte. As for the experimental part:
as §1
(In general: SPR reads the build-up and loss of mass on a sensor chip optically.)

B1: protein variant (7), Diabody Split CH2 (included) ("Splite") (bispecific antibody)
chain 1: DIVLTQSPASLAVSLGQRATISCRASESVDSYGQSYMHWYQQKAGQPPKLLIYLASNLESGVPARFSGSGSRTDFTLTIDPVQAEDAATYYCQQNAEDSRTFGGGTKLEIKGGPSVFLFPPKPKDTLMISRTPEVTCVVVDVSHEDPEVKFNWYVDGVEVHNDIQMTQSPASLSVSVGDTITLTCHASQNIDVWLSWFQQKPGNIPKLLIYKASNLHTGVPSRFSGSGSGTGFTLTISSLQPEDIATYYCQQAHSYPFTFGGGTKLEIK
chain 2: EVQLKESGPGLVAPGGSLSITCTVSGFSLTDSSINWVRQPPGKGLEWLGMIWGDGRIDYADALKSRLSISKDSSKSQVFLEMTSLRTDDTATYYCARDGYFPYAMDFWGQGTSVTVSSGGGGSGGGGSGGGGSAKTKPREEQYNSTYRVVSVLTVLHQDWLNGKEYKCKVSNKALPAPIEKTISKAKGQPREQVQLQQSGPELVKPGASVKISCKASGYSFTSYWIHWIKQRPGQGLEWIGMIDPSDGETRLNQRFQGRATLTVDESTSTAYMQLRSPTSEDSAVYYCTRLKEYGNYDSFYFDVWGAGTLVTVSSHHHHHH
notes: Splite diabody with other linkers than variant (4); also called splite diabody
The Kd is the concentration at which binding is half-saturated. A low value points to tighter binding. Broadly, the koff is a measure of how fast the partners let go of each other. The term kon denotes the rate constant with which the complex forms. Molecule B1 gave a Kd in test [1] of 68.5 pM. In addition, in test [2], the Ka came out at 1.46e+10 M⁻¹; the affinity, expressed as Kd, was 68.5 pM; the koff was found to be 0.000232 s⁻¹; the kon is 3.38e+06 M⁻¹ s⁻¹.

B2: protein variant (5), Diabody Split CH2 (included) ("Splite") (bispecific antibody)
chain 1: DIVLTQSPASLAVSLGQRATISCRASESVDSYGQSYMHWYQQKAGQPPKLLIYLASNLESGVPARFSGSGSRTDFTLTIDPVQAEDAATYYCQQNAEDSRTFGGGTKLEIKGGPSVFLFPPKPKDTLMISRTPEVTCVVVDVSHEDPEVKFNWYVDGVEVHNDIQMTQSPASLSVSVGDTITLTCHASQNIDVWLSWFQQKPGNIPKLLIYKASNLHTGVPSRFSGSGSGTGFTLTISSLQPEDIATYYCQQAHSYPFTFGGGTKLEIK
chain 2: EVQLKESGPGLVAPGGSLSITCTVSGFSLTDSSINWVRQPPGKGLEWLGMIWGDGRIDYADALKSRLSISKDSSKSQVFLEMTSLRTDDTATYYCARDGYFPYAMDFWGQGTSVTVSSGGGAKTKPREEQYNSTYRVVSVLTVLHQDWLNGKEYKCKVSNKALPAPIEKTISKAKGQPREQVQLQQSGPELVKPGASVKISCKASGYSFTSYWIHWIKQRPGQGLEWIGMIDPSDGETRLNQRFQGRATLTVDESTSTAYMQLRSPTSEDSAVYYCTRLKEYGNYDSFYFDVWGAGTLVTVSSHHHHHH
notes: as for B1
B2 returned a Kd in test [1] of 40.3 pM. In test [2], this molecule gave a Kd of 40.3 pM, a koff of 0.000165 s⁻¹ and a kon of 4.1e+06 M⁻¹ s⁻¹.

B3: protein variant (6), Diabody Split CH2 (included) ("Splite") (bispecific antibody)
chain 1: DIVLTQSPASLAVSLGQRATISCRASESVDSYGQSYMHWYQQKAGQPPKLLIYLASNLESGVPARFSGSGSRTDFTLTIDPVQAEDAATYYCQQNAEDSRTFGGGTKLEIKGGPSVFLFPPKPKDTLMISRTPEVTCVVVDVSHEDPEVKFNWYVDGVEVHNGGGGSGGGGSGGGGSDIQMTQSPASLSVSVGDTITLTCHASQNIDVWLSWFQQKPGNIPKLLIYKASNLHTGVPSRFSGSGSGTGFTLTISSLQPEDIATYYCQQAHSYPFTFGGGTKLEIK
chain 2: EVQLKESGPGLVAPGGSLSITCTVSGFSLTDSSINWVRQPPGKGLEWLGMIWGDGRIDYADALKSRLSISKDSSKSQVFLEMTSLRTDDTATYYCARDGYFPYAMDFWGQGTSVTVSSGGGAKTKPREEQYNSTYRVVSVLTVLHQDWLNGKEYKCKVSNKALPAPIEKTISKAKGQPREQVQLQQSGPELVKPGASVKISCKASGYSFTSYWIHWIKQRPGQGLEWIGMIDPSDGETRLNQRFQGRATLTVDESTSTAYMQLRSPTSEDSAVYYCTRLKEYGNYDSFYFDVWGAGTLVTVSSHHHHHH
notes: as for B1
As for B3, binding in test [1] was characterised by a dissociation constant (Kd) of 87.8 pM. Further, in test [2], the Ka was 1.14e+10 M⁻¹, binding was put at a Kd of 87.8 pM, the koff was 0.000261 s⁻¹ and the kon amounted to 2.97e+06 M⁻¹ s⁻¹.
